Measurements from patent publication US20250281611A1 (BIOSCEPTRE AUST, published 2025).

B1: CD33 BRIDGE variant B26 (Fab, V domains shown)
VH: QVQLVQSGAEVKKPGSSVKVSCKASGYTFTDYNMHWVRQAPGQGLEWIGYIYPYNGGTGYNQKFKSKATITADESTNTAYMELSSLRSEDTAVYYCARGRPAMDYWGQGTLVTVSS
VL: DIQMTQSPSSLSASVGDRVTITCRASESVDNYGISFMNWFQQKPGKAPKLLIYAASNQGSGVPSRFSGSGSGTDFTLTISSLQPDDFATYYCQQSKEVPWTFGQGTKVEIKR
notes: Lintuzumab-based Fab bridging molecule
B2: CD33 BRIDGE variant B21 (Fab)
light: DFPGHNYTTRNILPGLNITSGGGGSEPKSSDKTHTDIQMTQSPSSLSASVGDRVTITCRASESVDNYGISFMNWFQQKPGKAPKLLIYAASNQGSGVPSRFSGSGSGTDFTLTISSLQPDDFATYYCQQSKEVPWTFGQGTKVEIKRTVAAPSVFIFPPSDEQLKSGTASVVCLLNNFYPREAKVQWKVDNALQSGNSQESVTEQDSKDSTYSLSSTLTLSKADYEKHKVYACEVTHQGLSSPVTKSFNRGECHHHHHH
heavy: QVQLVQSGAEVKKPGSSVKVSCKASGYTFTDYNMHWVRQAPGQGLEWIGYIYPYNGGTGYNQKFKSKATITADESTNTAYMELSSLRSEDTAVYYCARGRPAMDYWGQGTLVTVSSASTKGPSVFPLAPSSKSTSGGTAALGCLVKDYFPEPVTVSWNSGALTSGVHTFPAVLQSSGLYSLSSVVTVPSSSLGTQTYICNVNHKPSNTKVDKKVEPKSCHHHHHH
notes: as for B1
B3: CD33 BRIDGE variant B30 (Fab)
light: DFPGHNYTTRNILPGLNITSTFHKTSGSGKGGGGSEPKSSDKTHTGSDIQMTQSPSSLSASVGDRVTITCRASESVDNYGISFMNWFQQKPGKAPKLLIYAASNQGSGVPSRFSGSGSGTDFTLTISSLQPDDFATYYCQQSKEVPWTFGQGTKVEIKRTVAAPSVFIFPPSDEQLKSGTASVVCLLNNFYPREAKVQWKVDNALQSGNSQESVTEQDSKDSTYSLSSTLTLSKADYEKHKVYACEVTHQGLSSPVTKSFNRGECHHHHHH
heavy: B2 heavy
notes: as for B1
B4: CD33 BRIDGE variant B27 (Fab)
light: DFPGHNYTTRNILPGLNITSGGGGSEPKSSDKTHTGSDIQMTQSPSSLSASVGDRVTITCRASESVDNYGISFMNWFQQKPGKAPKLLIYAASNQGSGVPSRFSGSGSGTDFTLTISSLQPDDFATYYCQQSKEVPWTFGQGTKVEIKRTVAAPSVFIFPPSDEQLKSGTASVVCLLNNFYPREAKVQWKVDNALQSGNSQESVTEQDSKDSTYSLSSTLTLSKADYEKHKVYACEVTHQGLSSPVTKSFNRGECHHHHHH
heavy: B2 heavy
notes: as for B1
B5: CD33 BRIDGE variant B23 (Fab)
light: DFPGHNYTTRNILPGLNITSTFHKTSGSGKGSEPKSSDKTHTDIQMTQSPSSLSASVGDRVTITCRASESVDNYGISFMNWFQQKPGKAPKLLIYAASNQGSGVPSRFSGSGSGTDFTLTISSLQPDDFATYYCQQSKEVPWTFGQGTKVEIKRTVAAPSVFIFPPSDEQLKSGTASVVCLLNNFYPREAKVQWKVDNALQSGNSQESVTEQDSKDSTYSLSSTLTLSKADYEKHKVYACEVTHQGLSSPVTKSFNRGECHHHHHH
heavy: B2 heavy
notes: as for B1
B6: CD33 BRIDGE variant B24 (Fab)
light: DFPGHNYTTRNILPGLNITSTFHKTSGSGKGGGGSEPKSSDKTHTDIQMTQSPSSLSASVGDRVTITCRASESVDNYGISFMNWFQQKPGKAPKLLIYAASNQGSGVPSRFSGSGSGTDFTLTISSLQPDDFATYYCQQSKEVPWTFGQGTKVEIKRTVAAPSVFIFPPSDEQLKSGTASVVCLLNNFYPREAKVQWKVDNALQSGNSQESVTEQDSKDSTYSLSSTLTLSKADYEKHKVYACEVTHQGLSSPVTKSFNRGECHHHHHH
heavy: B2 heavy
notes: as for B1
B7: CD33 BRIDGE variant B32 (Fab)
light: DFPGHNYTTRNILPGLNITSGSEPKSSDKTHTGGGGSDIQMTQSPSSLSASVGDRVTITCRASESVDNYGISFMNWFQQKPGKAPKLLIYAASNQGSGVPSRFSGSGSGTDFTLTISSLQPDDFATYYCQQSKEVPWTFGQGTKVEIKRTVAAPSVFIFPPSDEQLKSGTASVVCLLNNFYPREAKVQWKVDNALQSGNSQESVTEQDSKDSTYSLSSTLTLSKADYEKHKVYACEVTHQGLSSPVTKSFNRGECHHHHHH
heavy: B2 heavy
notes: as for B1
B8: CD33 BRIDGE variant B29 (Fab)
light: DFPGHNYTTRNILPGLNITSTFHKTSGSGKGSEPKSSDKTHTGSDIQMTQSPSSLSASVGDRVTITCRASESVDNYGISFMNWFQQKPGKAPKLLIYAASNQGSGVPSRFSGSGSGTDFTLTISSLQPDDFATYYCQQSKEVPWTFGQGTKVEIKRTVAAPSVFIFPPSDEQLKSGTASVVCLLNNFYPREAKVQWKVDNALQSGNSQESVTEQDSKDSTYSLSSTLTLSKADYEKHKVYACEVTHQGLSSPVTKSFNRGECHHHHHH
heavy: B2 heavy
notes: as for B1
B9: CD33 BRIDGE variant B31 (Fab)
light: DFPGHNYTTRNILPGLNITSEPKSSDKTHTGGGGSDIQMTQSPSSLSASVGDRVTITCRASESVDNYGISFMNWFQQKPGKAPKLLIYAASNQGSGVPSRFSGSGSGTDFTLTISSLQPDDFATYYCQQSKEVPWTFGQGTKVEIKRTVAAPSVFIFPPSDEQLKSGTASVVCLLNNFYPREAKVQWKVDNALQSGNSQESVTEQDSKDSTYSLSSTLTLSKADYEKHKVYACEVTHQGLSSPVTKSFNRGECHHHHHH
heavy: B2 heavy
notes: as for B1
B10: CD33 BRIDGE variant B33 (Fab)
light: DFPGHNYTTRNILPGLNITSGGGGSEPKSSDKTHTGGGGSDIQMTQSPSSLSASVGDRVTITCRASESVDNYGISFMNWFQQKPGKAPKLLIYAASNQGSGVPSRFSGSGSGTDFTLTISSLQPDDFATYYCQQSKEVPWTFGQGTKVEIKRTVAAPSVFIFPPSDEQLKSGTASVVCLLNNFYPREAKVQWKVDNALQSGNSQESVTEQDSKDSTYSLSSTLTLSKADYEKHKVYACEVTHQGLSSPVTKSFNRGECHHHHHH
heavy: B2 heavy
notes: as for B1
B11: CD33 BRIDGE variant B22 (Fab)
light: DFPGHNYTTRNILPGLNITSTFHKTSGSGKEPKSSDKTHTDIQMTQSPSSLSASVGDRVTITCRASESVDNYGISFMNWFQQKPGKAPKLLIYAASNQGSGVPSRFSGSGSGTDFTLTISSLQPDDFATYYCQQSKEVPWTFGQGTKVEIKRTVAAPSVFIFPPSDEQLKSGTASVVCLLNNFYPREAKVQWKVDNALQSGNSQESVTEQDSKDSTYSLSSTLTLSKADYEKHKVYACEVTHQGLSSPVTKSFNRGECHHHHHH
heavy: B2 heavy
notes: as for B1
B12: CD33 BRIDGE variant B28 (Fab)
light: DFPGHNYTTRNILPGLNITSTFHKTSGSGKEPKSSDKTHTGSDIQMTQSPSSLSASVGDRVTITCRASESVDNYGISFMNWFQQKPGKAPKLLIYAASNQGSGVPSRFSGSGSGTDFTLTISSLQPDDFATYYCQQSKEVPWTFGQGTKVEIKRTVAAPSVFIFPPSDEQLKSGTASVVCLLNNFYPREAKVQWKVDNALQSGNSQESVTEQDSKDSTYSLSSTLTLSKADYEKHKVYACEVTHQGLSSPVTKSFNRGECHHHHHH
heavy: B2 heavy
notes: as for B1

These binders were tested against T1, CD33 (UniProt P20138 18-364, limits assumed) (assay: flow cytometry, MOLM-13 cells, anti-His-FITC detection, ratio to no bridge).
T1 construct: whole, on cells; also called Siglec-3; CD33 on MOLM-13 cells
Description: (§1) MOLM-13 cells were incubated with different CD33 BRIDGE variants at saturating concentrations. […] The MFI intensity correlates with the number of secondary antibodies bound to the CD33 BRIDGE variants that are only detected if they are bound to the MOLM-13 cells. MFI: median fluorescence intensity. BLItz: Bio-Layer interferometry (BLI) technology using HIS-tag identification tips. […] The higher the MFIR, the stronger the binding.

T1 sequence (P20138 18-364 limits assumed): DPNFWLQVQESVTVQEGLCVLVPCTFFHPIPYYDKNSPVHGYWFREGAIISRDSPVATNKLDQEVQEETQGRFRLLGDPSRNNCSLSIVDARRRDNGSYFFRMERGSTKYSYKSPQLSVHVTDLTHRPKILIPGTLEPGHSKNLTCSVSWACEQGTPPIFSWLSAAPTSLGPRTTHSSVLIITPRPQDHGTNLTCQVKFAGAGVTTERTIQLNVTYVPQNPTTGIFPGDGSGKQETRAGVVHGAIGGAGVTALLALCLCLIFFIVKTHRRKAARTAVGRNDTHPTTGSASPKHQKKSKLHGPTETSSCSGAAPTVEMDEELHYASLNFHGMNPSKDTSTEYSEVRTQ

MFIR HisTag FITC | Binder
8.58 | B1
9.01 | B2
9.39 | B3
8.28 | B4
10.2 | B5
9.33 | B6
9.99 | B7
8.03 | B8
10.6 | B9
10.4 | B10
6.88 | B11
9.45 | B12

These binders were tested against T1, CD33 (assay: flow cytometry, MOLM-13 cells, anti-His-FITC detection).
Description: as §1

MFI HisTag FITC | Binder
5.75 | B1
6.04 | B2
6.29 | B3
5.55 | B4
6.82 | B5
6.25 | B6
6.69 | B7
5.38 | B8
7.09 | B9
6.96 | B10
4.61 | B11
6.33 | B12

The binders below were run against T2, nfP2X7 CAR 1 (assay: flow cytometry, CAR T cells, anti-His-FITC, EGFR+ MFI over background 0.4).
T2 construct: Expressed on T cells with truncated EGFR as marker gene; also called anti-nfP2X7 receptor CAR 1; nfP2X7 targeted CAR on EGFR+ T cells
Method in brief: (§2)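 CAR T cells incubated with BRiDGE variants at saturating concentrations; bound BRiDGE detected with anti-His-FITC by flow cytometry. EGFR marks CAR expression. Value is median fluorescence intensity on EGFR+ (CAR+) cells divided by that on EGFR− (CAR−) cells.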

HisTag MFI Ratio (background 0.4) | Binder
3.1 | B1
2.9 | B2
4.1 | B3
3 | B4
4.3 | B5
4.6 | B6
4 | B7
4.3 | B8
3.4 | B9
4.2 | B10
3.6 | B11
4 | B12

The binders below were run against T2, nfP2X7 CAR 1 (assay: flow cytometry, nfP2X7 CAR T cells (EGFR+), anti-His-FITC detection).

MFI HisTag FITC in EGFR+ Population | Binder
1.22 | B1
1.14 | B2
1.63 | B3
1.2 | B4
1.71 | B5
1.82 | B6
1.59 | B7
1.73 | B8
1.34 | B9
1.69 | B10
1.44 | B11
1.58 | B12

Each binder was assayed against T2, nfP2X7 CAR 1 (assay: flow cytometry, CAR T cells, anti-His-FITC, EGFR+ over EGFR- cells).
Method in brief: as §2

HisTag MFI Ratio of EGFR+/EGFR- | Binder
2.8 | B1
2.8 | B2
3.3 | B3
2.8 | B4
3.4 | B5
3.5 | B6
3.3 | B7
3.4 | B8
3 | B9
3.4 | B10
3.1 | B11
3.2 | B12
